Source: article PMC11000523 (Nature, 2023)
One block for each molecule: values may come before it.

What was measured:
[1] = target: nucleosome core particle carrying a methyllysine analogue of histone H3K9 (H3Kc9me3) (Xenopus laevis); assay: BLI
[2] = target: BAH domain of human TNRC18 (amino acids 2785–2968) (human) (UniProt O15417); assay: ITC
[3] = target: TNRC18 BAH domain, 2785-2968 (UniProt O15417); assay: isothermal titration calorimetry; conditions: reference: H3(1–22)K9me3 peptide; sites T11
[4] = target: T1, amino acids 718–792 of TNRC18 (Sin3-interaction motif of TNRC18) (human, UniProt O15417 718-792); assay: ITC
T1 sequence (peptide, looked up): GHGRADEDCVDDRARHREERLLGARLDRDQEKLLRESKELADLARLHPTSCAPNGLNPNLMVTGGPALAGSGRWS

Sequence of BAH domain of human TNRC18 (amino acids 2785–2968) (human) (O15417 2785-2968): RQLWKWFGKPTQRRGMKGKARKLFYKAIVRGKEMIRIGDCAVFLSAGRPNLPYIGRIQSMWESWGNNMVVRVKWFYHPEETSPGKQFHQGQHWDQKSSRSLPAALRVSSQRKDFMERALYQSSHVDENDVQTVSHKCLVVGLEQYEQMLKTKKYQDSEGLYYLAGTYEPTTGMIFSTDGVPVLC

Molecule: BAH domain of human TNRC18 (amino acids 2785–2968) (from UniProt O15417 2785-2968) (domain or fragment)
Kd [1]: 0.0188 µM

Molecule: histone H3 1-22 (from UniProt P68431) H3(1–22)K9me3 T11ph peptide
binding against the reference [3]: same

Next, values leading:

Kd [2]: 252 µM
Molecule: H3K9me2 peptide

Kd [4]: 104 µM
B1: PAH domain of Sin3 (domain or fragment)
chain: QRLKVEDALSYLDQVKLQFGSQPQVYNDFLDIMKEFKSQSIDTPGVISRVSQLFKGHPDLIMGFNTFLPPG
